Earlier results on one substance are cited in publication PMC3951123.

Holding throughout (assay): SPR
Background: Surface plasmon resonance follows binding to a sensor surface in real time, without labels.

In data set [1] the target is Syk linker B peptide SykLB-YpY (Mus musculus) (UniProt P48025).
The target in data set [2] is Syk linker B peptide SykLB-pYpY (Mus musculus) (UniProt P48025).
Data set [3] addresses Syk linker B peptide SykLB-pYY (Mus musculus) (UniProt P48025).

What is called Kd is a measure of binding affinity in units of concentration. In the case of Vav1 SH2 (from UniProt P15498), the Kd in data set [1] was 71 µM; in data set [2] it was 7.4 µM; in data set [3] it was 14.6 µM.
